The text below walks through data of patent US20240368668A1, “SUBSTRATES AND BIOMARKERS OF ADAMTS7” (The Broad Institute, Inc., priority 2021, published 2024).

Square brackets hold non-standard residues; d marks the D form. Ends that are not written are not given here. Met(O) = CS(=O)CC[C@H](N)C(=O)O

The first experiment deals with T1, mouse ADAMTS7 (Mus musculus, UniProt Q68SA9, E373Q).
T1 construct: Full-length mouse Adamts7 1-1857 (Uniprot Q68SA9, WT or E373Q catalytic mutant); expressed in transfected cells; host or cells: Human Coronary Artery Smooth Muscle Cells (HCA-SMC, Lonza), adenovirus 50 MOI
T1 sequence (Q68SA9 221-1657 E373Q): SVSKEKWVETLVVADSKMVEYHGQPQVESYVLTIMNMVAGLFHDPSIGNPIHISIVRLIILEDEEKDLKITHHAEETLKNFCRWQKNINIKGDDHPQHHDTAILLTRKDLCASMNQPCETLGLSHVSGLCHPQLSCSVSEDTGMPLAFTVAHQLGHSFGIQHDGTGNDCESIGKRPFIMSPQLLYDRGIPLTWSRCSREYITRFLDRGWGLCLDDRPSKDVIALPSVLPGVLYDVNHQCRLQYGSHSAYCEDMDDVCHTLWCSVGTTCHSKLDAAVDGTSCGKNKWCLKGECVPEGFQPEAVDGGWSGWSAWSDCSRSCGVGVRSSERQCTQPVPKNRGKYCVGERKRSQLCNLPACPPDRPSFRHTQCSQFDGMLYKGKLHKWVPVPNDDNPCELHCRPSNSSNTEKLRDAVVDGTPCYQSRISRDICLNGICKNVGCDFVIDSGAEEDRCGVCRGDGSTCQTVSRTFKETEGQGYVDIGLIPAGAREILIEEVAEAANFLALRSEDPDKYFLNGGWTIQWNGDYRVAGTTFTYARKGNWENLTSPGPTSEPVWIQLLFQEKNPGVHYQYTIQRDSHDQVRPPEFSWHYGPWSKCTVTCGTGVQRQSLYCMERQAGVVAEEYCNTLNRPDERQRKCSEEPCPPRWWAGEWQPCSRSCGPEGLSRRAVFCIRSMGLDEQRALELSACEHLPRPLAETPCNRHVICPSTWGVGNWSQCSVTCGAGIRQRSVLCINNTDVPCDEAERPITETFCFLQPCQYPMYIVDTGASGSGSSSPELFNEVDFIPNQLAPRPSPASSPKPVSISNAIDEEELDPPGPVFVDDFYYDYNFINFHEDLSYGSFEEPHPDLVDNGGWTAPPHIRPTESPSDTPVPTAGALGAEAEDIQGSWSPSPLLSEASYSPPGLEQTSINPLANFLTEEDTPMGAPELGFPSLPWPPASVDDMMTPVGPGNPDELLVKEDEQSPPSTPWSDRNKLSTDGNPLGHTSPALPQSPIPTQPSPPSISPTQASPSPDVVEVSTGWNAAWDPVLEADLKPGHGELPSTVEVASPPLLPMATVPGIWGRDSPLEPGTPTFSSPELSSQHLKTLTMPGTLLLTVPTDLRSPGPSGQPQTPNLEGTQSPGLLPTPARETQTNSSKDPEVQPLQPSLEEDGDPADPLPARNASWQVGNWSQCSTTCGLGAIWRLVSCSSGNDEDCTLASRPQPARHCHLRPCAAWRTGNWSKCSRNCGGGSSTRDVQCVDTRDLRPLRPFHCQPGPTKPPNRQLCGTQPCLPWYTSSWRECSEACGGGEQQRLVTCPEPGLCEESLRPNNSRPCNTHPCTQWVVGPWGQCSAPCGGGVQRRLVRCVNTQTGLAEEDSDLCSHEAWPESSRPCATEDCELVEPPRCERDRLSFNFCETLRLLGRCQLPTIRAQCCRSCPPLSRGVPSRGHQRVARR
The experiment in a line: TMT10 TAILS N-terminomics, SMC2 experiment (process replicates, trypsin/AspN digest). Type of experiment: cell-based. The conditions noted are these: SMC2_TAILS HC; log fold change of N-terminal peptide, Ad-mADAMTS7 EQ over Luc. The method in brief:
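Full-length mouse ADAMTS7 (WT or E373Q mutant, C-terminal 3xFLAG) or luciferase was transduced via adenovirus, 50 MOI, into HCA-SMC (SMC1, SMC2) or HUVEC. SMC1: pooled media, technical triplicates 400 ug; SMC2: process triplicates 300 ug; HUVEC: process triplicates 200 ug, bFGF2 10 ng/ml.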
Take “LOXL1_218 (AVASAGVIYPYQPR; listed as Homo sapiens)”: the logFC.mEQ.over.Luc is recorded as −0.11.
“LOXL2_45 (HQPQAPANVAKIQLR; listed as Homo sapiens)” registered a logFC.mEQ.over.Luc of 0.11.
Regarding “LTBP2_79 (VAGLQPVER; listed as Homo sapiens)”, the logFC.mEQ.over.Luc was −0.09.
As to “LTBP2_250 (SAAGEGTLAR; listed as Homo sapiens)”, the logFC.mEQ.over.Luc was −0.21.
For “LTBP2_290 (QHVGLSR; listed as Homo sapiens)”, the logFC.mEQ.over.Luc was −0.10.
For “LTBP2_502 (LVENSVETRPPPWLPASPGHSLW; listed as Homo sapiens)”, the logFC.mEQ.over.Luc is −0.18.
The same measure, in the same setting: the result for “LTBP3_103 (LTGSGFR; listed as Homo sapiens)” reads −0.92.
Same read-out and setting: the result for “LTBP3_208 (FLVPLGPGQISA; listed as Homo sapiens)” reads −0.03.
The same measure, in the same setting: the result for “MAP4_815 (AVASTGPSSR; listed as Homo sapiens)” reads −0.02; that for “MAP4_816 (VASTGPSSR; listed as Homo sapiens)”, 0.02.
With “MMP1_100 (FVLTEGNPR; listed as Homo sapiens)”, the logFC.mEQ.over.Luc is −0.05.
“MMP1_185 (FQPGPGIGG; listed as Homo sapiens)”: the logFC.mEQ.over.Luc is recorded as −0.37.
The same measure, in the same setting: with “NBEA_1892 (LEKVAPLLR; listed as Homo sapiens)” the figure was −0.08; with “NID1_360 (FHQQHPQVI; listed as Homo sapiens)”, −0.22; with “NID2_291 (HSSVPLGR; listed as Homo sapiens)”, 0.00.
With “NID2_951 (YAYPGAR; listed as Homo sapiens)”, the logFC.mEQ.over.Luc is −0.06.
Same read-out and setting: the result for “PAK4_141 (HSEAGGGSG; listed as Homo sapiens)” reads 0.69.
The same measure, in the same setting: with “PLIN3_75 (VSGAQPILSKL; listed as Homo sapiens)” the figure was 0.07; with “POSTN_727 (IITGPEIKYTR; listed as Homo sapiens)”, −0.09.
Still for that read-out and setting: the result for “PPP1R18_295 (LSETLTR; listed as Homo sapiens)” reads 0.03; that for “PTPRF_1859 (MRYEGVVDMFQTVKTLR; listed as Homo sapiens)”, −0.08.
“QSOX1_210 (HKGVAVR; listed as Homo sapiens)”: the logFC.mEQ.over.Luc is listed as −0.49.
Still for that read-out and setting: with “SHC2_267 (VAKDPINQRACHIL; listed as Homo sapiens)” the figure was 0.04.
Turning to “SPOCK1_27 (LAGGAGPNHGNFL; listed as Homo sapiens)”, the logFC.mEQ.over.Luc is given as −0.65.
In the case of “SRGN_59 (LLPGESNKIPR; listed as Homo sapiens)”, the logFC.mEQ.over.Luc was found to be 0.05.
Same read-out and setting: the result for “TNPO2_744 (VQ[Met(O)]VLNNLVEII[code n]RP[code n]TPKTLLE; listed as Homo sapiens)” reads 0.06; that for “TNS1_236 (QEGLAGYQR; listed as Homo sapiens)”, −0.59; that for “TRGC2_86 (HRCIVRHENNK; listed as Homo sapiens)”, 0.23.
The same measure, in the same setting: the result for “TTN_5975 (VKEPPVEFTKPL; listed as Homo sapiens)” reads −0.19; that for “VAT1_42 (AASPPLLR; listed as Homo sapiens)”, 0.27; that for “VIM_314 (QESTEYR; listed as Homo sapiens)”, −0.22.
Regarding “VIM_333 (LKGTNESLER; listed as Homo sapiens)”, the logFC.mEQ.over.Luc is −0.09.

Still in this experiment, the particulars now being: SMC2_TAILS HC; log fold change, mEQ over Luc.
Regarding “COL1A2_80 (QYDGKGVGLGPGPMGLMGPR; listed as Homo sapiens)”, the logFC.mEQ.over.Luc was −0.33.
Same read-out and setting: with “COL1A2_270 (VGNAGPAGPAGPR; listed as Homo sapiens)” the figure was −0.05; with “COL1A2_305 (LTGAKGAAGLPGVAGAPGLPGPR; listed as Homo sapiens)”, −0.32.
On the same count and under the same terms, the result for “COL1A2_630 (VGTAGPSGPSGLPGER; listed as Homo sapiens)” reads −0.30; that for “COL1A2_866 (LLGAPGILGLPGSR; listed as Homo sapiens)”, −0.46; that for “COL1A2_960 (AGAPGPHGPVGPAGKHGNR; listed as Homo sapiens)”, −0.16.
Same read-out and setting: the result for “COL1A2_1028 (LQGLPGIAGHHGDQGAPGSVGPAGPR; listed as Homo sapiens)” reads −0.25; that for “COL4A2_71 (YNGPPGLQGFPGLQGR; listed as Homo sapiens)”, −0.32; that for “COL18A1_1505 (LQPPVVQLHDSNPYPR; listed as Homo sapiens)”, −0.01.

Still in this experiment, the particulars now being: log fold change, ADAMTS7 EQ over luciferase.
Turning to “SERBP1_56 (QAAAQTNSNAAGKQLR; listed as Homo sapiens)”, the logFC.mEQ.over.Luc is recorded as −0.09.
On the same count and under the same terms, the result for “SRGN_59 (LLPGESNKIPR; listed as Homo sapiens)” reads −0.10; that for “THBS2_290 (LSENLKR; listed as Homo sapiens)”, 0.59.
Same read-out and setting: the result for “VIM_314 (QESTEYR; listed as Homo sapiens)” reads 0.03; that for “VIM_333 (LKGTNESLER; listed as Homo sapiens)”, −0.03.
